Experimental data published in paper PMC6314816 (Journal of the American Chemical Society, 2018).

Tests used:
Assay in all cases: spectrophotometric NADPH oxidation, initial rates
Assay type in all cases: biochemical, Thermocrispum municipale
Settings in all cases: NADPH co-substrate
CC(=O)CCc1ccccc1 = system: CC(=O)CCc1ccccc1
CC(=O)Cc1ccccc1 = system: CC(=O)Cc1ccccc1
[1] = substrate: CC(=O)Cc1ccccc1; remark: listed apart in the source
[2] = substrate: CC(=O)CCc1ccccc1; remark: listed apart in the source

TmCHMO (Thermocrispum municipale; F434G/L145G/L437T/T435F)
Km (CC(=O)CCc1ccccc1): 24 ± 4.1 µM | kcat (CC(=O)CCc1ccccc1): 0.16 ± 0.0028 s⁻¹

TmCHMO (Thermocrispum municipale; L437A/W492Y)
Km (CC(=O)Cc1ccccc1): 1500 ± 460 µM | kcat (CC(=O)Cc1ccccc1): 0.16 ± 0.014 s⁻¹

B1: TmCHMO (Thermocrispum municipale) (protein)
chain: MSTTQTPDLDAIVIGAGFGGIYMLHKLRNDLGLSVRVFEKGGGVGGTWYWNKYPGAKSDTEGFVYRYSFDKELLREYDWTTRYLDQPDVLAYLEHVVERYDLARDIQLNTEVTDAIFDEETELWRVTTAGGETLTARFLVTALGLLSRSNIPDIPGRDSFAGRLVHTNAWPEDLDITGKRVGVIGTGSTGTQFIVAAAKMAEQLTVFQRTPQYCVPSGNGPMDPDEVARIKQNFDSIWDQVRSSTVAFGFEESTVEAMSVSESERQRVFQQAWDKGNGFRFMFGTFCDIATNPEANAAAAAFIRSKIAEIVKDPETARKLTPTDLYAKRPLCNEGYYETYNRDNVSLVSLKETPIEEIVPQGVRTSDGVVHELDVLVFATGFDAVDGNYRAMNLRGRDGRHINEHWTEGPTSYLGVTKAGFPNMFMILGPNGPFTNLPPSIEAQVEWISDLIDKATREGLTTVEPTADAEREWTETCAEIANMTLFPKADSWIFGANIPGKRHAVMFYLGGLGNYRRQLADVADGGYRGFQLRGERAQAVA
Km [1]: 860 ± 60 µM | kcat [1]: 0.73 ± 0.014 s⁻¹ | Km [2]: 12000 ± 7000 µM | kcat [2]: 0.31 ± 0.11 s⁻¹
